Experiments:
Assay in all cases: purified protein
[1] = substrate: NC(=O)C1=CN([C@@H]2O[C@H](COP(=O)(O)OP(=O)(O)OC[C@H]3O[C@@H](n4cnc5c(N)ncnc54)[C@H](O)[C@@H]3O)[C@@H](O)[C@H]2O)C=CC1; type: biochemical, Cupriavidus pinatubonensis; conditions: 500 μM 4-hydroxybenzoate, 60 μM FAD, 50 mM Tris/sulfate pH 7.5, 30°C
[2] = substrate: O=C(O)c1ccc(O)cc1; type: biochemical, Cupriavidus pinatubonensis; conditions: 175 μM NADH, 60 μM FAD, 50 mM Tris/sulfate pH 7.5, 30°C
[3] = substrate: NC(=O)C1=CN([C@@H]2O[C@H](COP(=O)(O)OP(=O)(O)OC[C@H]3O[C@@H](n4cnc5c(N)ncnc54)[C@H](OP(=O)(O)O)[C@@H]3O)[C@@H](O)[C@H]2O)C=CC1; type: biochemical, Cupriavidus necator; conditions: 500 μM 4-hydroxybenzoate, 60 μM FAD, 50 mM Tris/sulfate pH 7.5, 30°C
[4] = substrate: O=C(O)c1ccc(O)cc1; type: biochemical, Cupriavidus necator; conditions: 175 μM NADPH, 60 μM FAD, 50 mM Tris/sulfate pH 7.5, 30°C
[5] = substrate: NC(=O)C1=CN([C@@H]2O[C@H](COP(=O)(O)OP(=O)(O)OC[C@H]3O[C@@H](n4cnc5c(N)ncnc54)[C@H](OP(=O)(O)O)[C@@H]3O)[C@@H](O)[C@H]2O)C=CC1; type: biochemical, Rhodococcus opacus; conditions: 500 μM 4-hydroxybenzoate, 60 μM FAD, 50 mM Tris/sulfate pH 7.5, 30°C
[6] = substrate: NC(=O)C1=CN([C@@H]2O[C@H](COP(=O)(O)OP(=O)(O)OC[C@H]3O[C@@H](n4cnc5c(N)ncnc54)[C@H](O)[C@@H]3O)[C@@H](O)[C@H]2O)C=CC1; type: biochemical, Rhodococcus opacus; conditions: 500 μM 4-hydroxybenzoate, 60 μM FAD, 50 mM Tris/sulfate pH 7.5, 30°C
[7] = substrate: O=C(O)c1ccc(O)cc1; type: biochemical, Rhodococcus opacus; conditions: 175 μM NADH, 60 μM FAD, 50 mM Tris/sulfate pH 7.5, 30°C

B1: PHBHCn1 (Cupriavidus pinatubonensis JMP134) (protein)
chain: MRTRVAIIGAGPAGLLLGHLLQRAGIDSVILEDCTQAHVEARIRAGVLEQGTVDLLEEAGVAARLREQGMVHHGIDLLFDGQRHRIDLSGLTGGRAITVYGQHEVVRDLIAARQACGAPLLFEVSQVALHGLDTQSPSLSFEHGGQRHVLACDFIAGCDGSHGVSRHAVPAGALQVFERSYPFAWLGILASAAPAAQELIYASHARGFALFSMRSPEITRLYLQCRPDEDLAGWTDRRIWDELHARLETGDGWHLNEGPVLQKGITPMRSLVTEPMQYGRLFLAGDAAHIVPPTGAKGMNLAVADVRNLAHALVTHYRHGRDDLLAGYSSACLARVWRAEHFSWWMTSLLHRFDDHTPFTARLQHAELAYVCASQAASRMLAENYVGLPFAPLPA
notes: N-terminal His10-tag, codon-optimized gene, E. coli BL21 (DE3) pLysS, Ni-chelate purified; motif 32-EDCTQAHVEAR
Protein B1 has a Km [1] of 49.8 ± 5.6 µM, a Vmax [1] of 12.3 µmol/min/mg and a kcat [1] of 9.4 ± 0.4 s⁻¹. The Km [2] was 20.2 ± 2.3 µM, the Vmax [2] was 9.9 µmol/min/mg and the kcat [2] was 7.6 ± 0.2 s⁻¹.

B2: PHBHCn2 (Cupriavidus pinatubonensis JMP134) (protein)
chain: MRTQVAIIGAGPAGLLLGQLLSRAGIDNIIVEQRSPEYVLGRIRAGILESVTVDALERAGVAARLHDEGLPHAGIELSFNGQRHRIDLQALTGRTVTVYGQTEVTRDLMAARQAEGTTTIYEAADVSLHGFDGTRPLVRYRKDGATHEIECDYIAGCDGFHGVSRQSVPATSSQLFERVYPFGWLGILSDTPPVADELIYASHERGFALCSMRSKARSRYYVQVPSTERVEDWSDERFWDELRSRLDPQAAESLVTGPSIEKSIAPLRSFVCEPMRFGRLFLAGDAAHIVPPTGAKGLNLAASDVLYLADALTARYQQDDLRELDSYSEKCLRRIWKAERFSWWMTSLLHRFPDADAFSARIQQAELDFLVSSEAACKALAENYVGLPY
notes: N-terminal His10-tag, codon-optimized gene, E. coli BL21 (DE3) pLysS, Ni-chelate purified; motif 32-EQRSPEYVLGR
Work on B2 yielded a Km [3] of 146 ± 20 µM, a Vmax [3] of 49.1 µmol/min/mg and a kcat [3] of 37 ± 2.8 s⁻¹. The Km [4] was 26.4 ± 4.4 µM, the Vmax [4] was 27 µmol/min/mg and the kcat [4] was 18 ± 0.7 s⁻¹.

B3: PHBHRo1CP (Rhodococcus opacus) (protein)
chain: MNTQVGIVGGGPAGLMLSHLLHLKGIDSVVLESRTREEVEGTIRAGVLEQNTVDLMVDTGLGDRVKREGLTHHGIELRFGGRGHRIDFDELTNGRAVTVYPQHEVLKDLIARRLEDDGDIRFGVSDVQVHDHTSDNPKITYLDADGNEQTLTCALVAGCDGSRTSTRGLIPETTVRTDHFRQYPFAWFGILAEAPPSSEELIYANHPRGFALISTRTPEVQRHYLQVDPDDSVDNWSDDRIWSELHARVDGEGAEIKDGKIFQKSILQFRSFVCEPMQHGNLFLAGDAAHTVPPTGAKGMNLAIADVYFLSQAMAEYFATRSRAGLEGYTDSVLPRVWRTQHFSWWMSSMLHRLPDETGFGHKRQVAELDMVTRSVAGRTLIAENYVGTPLG
notes: His10-tagged, pET16bp, E. coli, Ni-chelate purified; motif 32-ESRTREEVEGT
Work on B3 yielded a Km [5] of 153 ± 16 µM, a Vmax [5] of 19.8 µmol/min/mg and a kcat [5] of 15 ± 1.5 s⁻¹. The Km [6] was 39.7 ± 5.0 µM, the Vmax [6] was 20 µmol/min/mg and the kcat [6] was 15.3 ± 0.7 s⁻¹. For the same protein, the Km [7] was 30.4 ± 2.4 µM, the Vmax [7] was 16.8 µmol/min/mg and the kcat [7] was 12.9 ± 0.2 s⁻¹.

Source: article PMC6315137, “Pyridine Nucleotide Coenzyme Specificity of p-Hydroxybenzoate Hydroxylase and Related Flavoprotein Monooxygenases” (Frontiers in Microbiology, 2018)
